# Data from article PMC6300978 (Chemico-biological interactions, 2015).
# B1: recombinant human UGT1A10 (Homo sapiens) (protein)
# chain: GKLLVVPMDGSHWFTMQSVVEKLILRGHEVVVVMPEVSWQLERSLNCTVKTYSTSYTLEDQNREFMVFAHAQWKAQAQSIFSLLMSSSSGFLDLFFSHCRSLFNDRKLVEYLKESSFDAVFLDPFDTCGLIVAKYFSLPSVVFTRGIFCHHLEEGAQCPAPLSYVPNDLLGFSDAMTFKERVWNHIVHLEDHLFCQYLFRNALEIASEILQTPVTAYDLYSHTSIWLLRTDFVLDYPKPVMPNMIFIGGINCHQGKPLPMEFEAYINASGEHGIVVFSLGSMVSEIPEKKAMAIADALGKIPQTVLWRYTGTRPSNLANNTILVKWLPQNDLLGHPMTRAFITHAGSHGVYESICNGVPMVMMPLFGDQMDNAKRMETKGAGVTLNVLEMTSEDLENALKAVINDKSYKENIMRLSSLHKDRPVEPLDLAVFWVEFVMRHKGAPHLRPAAHDLTWYQYHSLDVIGFLLAVVLTVAFITFKCCAYGYRKCLGKKGRVKKAHKSKTH
# B2: recombinant human UGT1A8 (Homo sapiens) (protein)
# chain: GKLLVVPMDGSHWFTMQSVVEKLILRGHEVVVVMPEVSWQLGKSLNCTVKTYSTSYTLEDLDREFMDFADAQWKAQVRSLFSLFLSSSNGFFNLFFSHCRSLFNDRKLVEYLKESSFDAVFLDPFDACGLIVAKYFSLPSVVFARGIACHYLEEGAQCPAPLSYVPRILLGFSDAMTFKERVRNHIMHLEEHLFCQYFSKNALEIASEILQTPVTAYDLYSHTSIWLLRTDFVLDYPKPVMPNMIFIGGINCHQGKPLPMEFEAYINASGEHGIVVFSLGSMVSEIPEKKAMAIADALGKIPQTVLWRYTGTRPSNLANNTILVKWLPQNDLLGHPMTRAFITHAGSHGVYESICNGVPMVMMPLFGDQMDNAKRMETKGAGVTLNVLEMTSEDLENALKAVINDKSYKENIMRLSSLHKDRPVEPLDLAVFWVEFVMRHKGAPHLRPAAHDLTWYQYHSLDVIGFLLAVVLTVAFITFKCCAYGYRKCLGKKGRVKKAHKSKTH
# B3: recombinant human UGT1A3 (Homo sapiens) (protein)
# chain: GKVLVVPIDGSHWLSMREVLRELHARGHQAVVLTPEVNMHIKEENFFTLTTYAISWTQDEFDRHVLGHTQLYFETEHFLKKFFRSMAMLNNMSLVYHRSCVELLHNEALIRHLNATSFDVVLTDPVNLCAAVLAKYLSIPTVFFLRNIPCDLDFKGTQCPNPSSYIPRLLTTNSDHMTFMQRVKNMLYPLALSYICHAFSAPYASLASELFQREVSVVDILSHASVWLFRGDFVMDYPRPIMPNMVFIGGINCANRKPLSQEFEAYINASGEHGIVVFSLGSMVSEIPEKKAMAIADALGKIPQTVLWRYTGTRPSNLANNTILVKWLPQNDLLGHPMTRAFITHAGSHGVYESICNGVPMVMMPLFGDQMDNAKRMETKGAGVTLNVLEMTSEDLENALKAVINDKSYKENIMRLSSLHKDRPVEPLDLAVFWVEFVMRHKGAPHLRPAAHDLTWYQYHSLDVIGFLLAVVLTVAFITFKCCAYGYRKCLGKKGRVKKAHKSKTH
# B4: recombinant human UGT1A1 (Homo sapiens) (protein)
# chain: HAGKILLIPVDGSHWLSMLGAIQQLQQRGHEIVVLAPDASLYIRDGAFYTLKTYPVPFQREDVKESFVSLGHNVFENDSFLQRVIKTYKKIKKDSAMLLSGCSHLLHNKELMASLAESSFDVMLTDPFLPCSPIVAQYLSLPTVFFLHALPCSLEFEATQCPNPFSYVPRPLSSHSDHMTFLQRVKNMLIAFSQNFLCDVVYSPYATLASEFLQREVTVQDLLSSASVWLFRSDFVKDYPRPIMPNMVFVGGINCLHQNPLSQEFEAYINASGEHGIVVFSLGSMVSEIPEKKAMAIADALGKIPQTVLWRYTGTRPSNLANNTILVKWLPQNDLLGHPMTRAFITHAGSHGVYESICNGVPMVMMPLFGDQMDNAKRMETKGAGVTLNVLEMTSEDLENALKAVINDKSYKENIMRLSSLHKDRPVEPLDLAVFWVEFVMRHKGAPHLRPAAHDLTWYQYHSLDVIGFLLAVVLTVAFITFKCCAYGYRKCLGKKGRVKKAHKSKTH
# How the values were obtained:
# [1] = probe reaction for UGT1A1; cited from earlier work
# [2] = Chemical inhibition of GA glucuronidation; details: GA 2 µM, M2 formation
# [3] = system: UGT1A8; details: mycophenolic acid as substrate of UGT1A8; cited from earlier work
# [4] = substrate: CC1(C)C=Cc2c(ccc3c2OC[C@@H](c2ccc(O)cc2O)C3)O1; test: GA glucuronidation kinetics by recombinant UGT1A10; type: in vitro ADME, human; details: other: UGT1A10, M2 formation, substrate inhibition model; pH 7.4
# [5] = substrate: CC1(C)C=Cc2c(ccc3c2OC[C@@H](c2ccc(O)cc2O)C3)O1; test: GA glucuronidation by recombinant UGT1A8; type: in vitro ADME, human; details: other: UGT1A8, M2 formation, substrate inhibition model; pH 7.4
# [6] = substrate: CC1(C)C=Cc2c(ccc3c2OC[C@@H](c2ccc(O)cc2O)C3)O1; test: GA glucuronidation kinetics by recombinant UGT1A3; type: in vitro ADME, human; details: other: UGT1A3, M2 formation, Michaelis–Menten; pH 7.4
# [7] = substrate: CC1(C)C=Cc2c(ccc3c2OC[C@@H](c2ccc(O)cc2O)C3)O1; test: GA glucuronidation kinetics by recombinant UGT1A1; type: in vitro ADME, human; details: Michaelis–Menten, pH 7.4
molecule,measurement,setting,value
C#C[C@]1(O)CC[C@H]2[C@@H]3CCc4cc(O)ccc4[C@H]3CC[C@@]21C [ethylestradiol],rate of 3-O-glucuronidation by DLM relative to HLM,[1],10 fold
OC(Cn1cncn1)(Cn1cncn1)c1ccc(F)cc1F [fluconazole],remaining GA glucuronidation activity in HIM,[2]; inhibitor 1 mM (Fig. 6),above 85 % of the control
C=CCc1ccc(O)c(-c2cc(CC=C)ccc2O)c1 [magnolol],remaining GA glucuronidation activity in HIM,[2]; inhibitor 1 µM,above 85 % of the control
COc1c(C)c2c(c(O)c1C/C=C(\C)CCC(=O)O)C(=O)OC2 [mycophenolic acid],remaining GA glucuronidation activity in HIM,[2]; inhibitor 10 µM,28 % of the control
same,Km,[3],1.39 µM
Cc1cn(-c2cc(NC(=O)c3ccc(C)c(Nc4nccc(-c5cccnc5)n4)c3)cc(C(F)(F)F)c2)cn1 [nilotinib],remaining GA glucuronidation activity in HIM,[2]; inhibitor 1 µM,above 85 % of the control
B1,Km,[4],28 ± 8 µM
same,Vmax,[4],0.5 ± 0.1 nmol/min/mg
B2,Km,[5],64 ± 9 µM
same,Vmax,[5],11 ± 3 nmol/min/mg
B3,Km,[6],11 ± 4 µM
same,Vmax,[6],0.32 ± 0.06 nmol/min/mg
B4,Km,"[7]; other: UGT1A1, M1 formation",7.6 ± 1.8 µM
same,Vmax,"[7]; other: UGT1A1, M1 formation",0.17 ± 0.01 nmol/min/mg
same,Km,"[7]; other: UGT1A1, M2 formation",24 ± 14 µM
same,Vmax,"[7]; other: UGT1A1, M2 formation",0.11 ± 0.03 nmol/min/mg
